B1: C2CD2L (parent)
chain: LTLKVLRSSSCGDTELLGQATLPV

Variants of: B1
Assay: protein stability index of a GFP-peptide fusion (GPS, HEK-293T) (PSI 1-6); higher = more stable
Details: c terminus: a fixed tail appended
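Note: lentivirally expressed fusions sorted by FACS into six bins by GFP to DsRed ratio, PSI derived from sequencing read proportions per bin multiplied by bin number.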

Variant	protein stability index
LTLKVLRESSCGDTELLGQATLPV [S8E]	1.72
LTLKVLRDSSCGDTELLGQATLPV [S8D]	1.93
LTLKVRRSSSCGDTELLGQATLPV [L6R]	2.03
LTLKVDRSSSCGDTELLGQATLPV [L6D]	2.47
LTLKVNRSSSCGDTELLGQATLPV [L6N]	2.19
LTLKVCRSSSCGDTELLGQATLPV [L6C]	1.69
LTLKVKRSSSCGDTELLGQATLPV [L6K]	2.17
LTLKVSRSSSCGDTELLGQATLPV [L6S]	1.89
LTLKVTRSSSCGDTELLGQATLPV [L6T]	1.26
LTLKVHRSSSCGDTELLGQATLPV [L6H]	2.13
LTLKVVRSSSCGDTELLGQATLPV [L6V]	3.39
LTLKVFRSSSCGDTELLGQATLPV [L6F]	2.21
LTLKVLRSSSCGITELLGQATLPV [D13I]	3.63
LTLKVLRSSSCGTTELLGQATLPV [D13T]	3.72
LTLKVLRSSSCGYTELLGQATLPV [D13Y]	2.16
LTLKVLRSSSCGDTELLGQACLPV [T21C]	1.68
LTLKVLRSSSCGDTELLGQADLPV [T21D]	1.57
LTLKVLRSSSCGDTELLGQAELPV [T21E]	1.58
LTLKVLRSSSCGDTELLGQAVLPV [T21V]	2.34
LTLKVLRSSSCGDTELLGQAGLPV [T21G]	2.94
LTLKVLRSSSCGDTELLGQAFLPV [T21F]	3.74
LTLKVLRSSSCGDTELLGQASLPV [T21S]	2.06
LTLKVLRSSSCGDTELLGQAALPV [T21A]	1.09
LTLKVLRSSSCGDTELLGQAQLPV [T21Q]	1.58

Variant	protein stability index
LTLKVLRSSECGDTELLGQATLPV [S10E]	1.75
LTLKVLRSSVCGDTELLGQATLPV [S10V]	3.73
LTLKVLRSSCCGDTELLGQATLPV [S10C]	3.45
LTLKVLRSSYCGDTELLGQATLPV [S10Y]	3.53
LTLKVLRSSLCGDTELLGQATLPV [S10L]	2.44
LTLKVLRSSFCGDTELLGQATLPV [S10F]	2.93
LTLKVLRSSPCGDTELLGQATLPV [S10P]	2.45
LTLKVLRSSICGDTELLGQATLPV [S10I]	1.76
LTLKVLRSSSCGDTELLGQATLPF [V24F]	2.7
LTLKVLRSSSCGDTELLGQATLPM [V24M]	4.58
LTLKVLRSSSCGDTELLGQATLPH [V24H]	1.37
LTLKVLRSSSCGDTELLGQATLPE [V24E]	1.54
LTLKVLRSSSCGDTELLGQATLPD [V24D]	1.64
LTLKVLRSSSCGDTELLGQATLPP [V24P]	2.41
LTLKVLRSSSCGDTELLGQATLPN [V24N]	1.92
LTLKVLRSSSCGDTELLGQATLPG [V24G]	2.02
LTLKVLRSSSCMDTELLGQATLPV [G12M]	3.71
LTLKVLRSSSCRDTELLGQATLPV [G12R]	2.71
LTLKVLRSSSCNDTELLGQATLPV [G12N]	1.56
LTLKVLRSSSCQDTELLGQATLPV [G12Q]	2.12
LTLKVLRSSSCYDTELLGQATLPV [G12Y]	1.42
LTLKVLRSSSCVDTELLGQATLPV [G12V]	1.99
LTLKVLRSSSCHDTELLGQATLPV [G12H]	1.97
LTLKVLRSSSCWDTELLGQATLPV [G12W]	3.06

Variant	protein stability index
LTLKRLRSSSCGDTELLGQATLPV [V5R]	2.05
LTLKALRSSSCGDTELLGQATLPV [V5A]	2.3
LTLKMLRSSSCGDTELLGQATLPV [V5M]	1.75
LTLKYLRSSSCGDTELLGQATLPV [V5Y]	2.69
LTLKSLRSSSCGDTELLGQATLPV [V5S]	2.11
LTLKDLRSSSCGDTELLGQATLPV [V5D]	2.97
LTLKHLRSSSCGDTELLGQATLPV [V5H]	2.27
LTLKELRSSSCGDTELLGQATLPV [V5E]	2.82
LTLKPLRSSSCGDTELLGQATLPV [V5P]	2.38
LTLKNLRSSSCGDTELLGQATLPV [V5N]	2.26
LTLKILRSSSCGDTELLGQATLPV [V5I]	2.08
LTLKLLRSSSCGDTELLGQATLPV [V5L]	2.75
LTLKKLRSSSCGDTELLGQATLPV [V5K]	2.17
LTLKVLRSMSCGDTELLGQATLPV [S9M]	3.09
LTLKVLRSVSCGDTELLGQATLPV [S9V]	1.09
LTLKVLRSESCGDTELLGQATLPV [S9E]	1.1
LTLKVLRSDSCGDTELLGQATLPV [S9D]	1.72
LTLKVLRSNSCGDTELLGQATLPV [S9N]	1.82
LTLKVLRSCSCGDTELLGQATLPV [S9C]	1.76
LTLKVLRSPSCGDTELLGQATLPV [S9P]	1.71
LTLKVLRSRSCGDTELLGQATLPV [S9R]	3.44
LTLKVLRSWSCGDTELLGQATLPV [S9W]	3.38
LTLKVLRSFSCGDTELLGQATLPV [S9F]	2.54
LTLKVLRSHSCGDTELLGQATLPV [S9H]	2.94

Variant	protein stability index
LTLKVLRSASCGDTELLGQATLPV [S9A]	1.95
LTLKVLRSSSCGDTELLGQATLCV [P23C]	3.55
LTLKVLRSSSCGDTELLGQATLAV [P23A]	3.27
LTLKVLRSSSCGDTELRGQATLPV [L17R]	1.35
LTLKVLRSSSCGDTELEGQATLPV [L17E]	2.7
LTLKVLRSSSCGDTELHGQATLPV [L17H]	1.24
LTLKVLRSSSCGDTELGGQATLPV [L17G]	1.86
LTLKVLRSSSCGDTELTGQATLPV [L17T]	1.92
LTLKVLRSSSCGDTELYGQATLPV [L17Y]	1.57
LTLKVLRSSSCGDTELKGQATLPV [L17K]	2.05
LTLKVLRSSSCGDTELSGQATLPV [L17S]	1.28
LTLKVLRSSSCGDTELFGQATLPV [L17F]	2.92
LTLKVLRSSSCGDTELNGQATLPV [L17N]	3.12
LTLKVLRSSSCGDTELWGQATLPV [L17W]	2.04
LTLKVLRSSSCGDTELDGQATLPV [L17D]	2.89
LTLKVLRSSSCGDTELLGQNTLPV [A20N]	2.49
LTLKVLRSSSCGDTELLGQRTLPV [A20R]	1.44
LTLKVLRSSSCGDTELLGQSTLPV [A20S]	1.48
LTLKVLRSSSCGDTELLGQETLPV [A20E]	2.1
LTLKVLRSSSCGDTELLGQKTLPV [A20K]	3.04
LTLKVLRSSSCGDTELLGQITLPV [A20I]	2.35
LTLKVLRSSSCGDTELLMQATLPV [G18M]	2.32
LTLKVLRSSSCGDTELLCQATLPV [G18C]	2.07
LTLKVLRSSSCGDTELLRQATLPV [G18R]	2.06

Variant	protein stability index
LTLKVLRSSSCGDTELLYQATLPV [G18Y]	1.77
LTLKVLRSSSCGDTELLAQATLPV [G18A]	1.97
LTLKVLRSSSCGDTELLFQATLPV [G18F]	2.89
KTLKVLRSSSCGDTELLGQATLPV [L1K]	1.99
DTLKVLRSSSCGDTELLGQATLPV [L1D]	3.35
ETLKVLRSSSCGDTELLGQATLPV [L1E]	2.76
STLKVLRSSSCGDTELLGQATLPV [L1S]	2.74
ATLKVLRSSSCGDTELLGQATLPV [L1A]	4.09
PTLKVLRSSSCGDTELLGQATLPV [L1P]	2.9
CTLKVLRSSSCGDTELLGQATLPV [L1C]	2.58
NTLKVLRSSSCGDTELLGQATLPV [L1N]	2.97
LTLKVLRSSSCGDKELLGQATLPV [T14K]	1.04
LTLKVLRSSSCGDGELLGQATLPV [T14G]	3.33
LTLKVLRSSSCGDCELLGQATLPV [T14C]	1.79
LTLKVLRSSSCGDRELLGQATLPV [T14R]	2.06
LTLKVLRSSSCGDEELLGQATLPV [T14E]	2.58
LTLKVLRSSSCGDDELLGQATLPV [T14D]	2.2
LTLKVLRSSSCGDMELLGQATLPV [T14M]	2.03
LTLKVLRSSSCGDSELLGQATLPV [T14S]	1.8
LTLKVLRSSSCGDAELLGQATLPV [T14A]	3.11
LTLKVLRSSSCGDPELLGQATLPV [T14P]	2.74
LTLKVLPSSSCGDTELLGQATLPV [R7P]	2.08
LTLKVLTSSSCGDTELLGQATLPV [R7T]	2.88
LTLKVLESSSCGDTELLGQATLPV [R7E]	1.96

Variant	protein stability index
LTLKVLASSSCGDTELLGQATLPV [R7A]	1.19
LTLKVLMSSSCGDTELLGQATLPV [R7M]	2.32
LTLKVLQSSSCGDTELLGQATLPV [R7Q]	1.33
LTLKVLGSSSCGDTELLGQATLPV [R7G]	1.37
LTLEVLRSSSCGDTELLGQATLPV [K4E]	2.12
LTLHVLRSSSCGDTELLGQATLPV [K4H]	1.65
LTLNVLRSSSCGDTELLGQATLPV [K4N]	1.19
LTLPVLRSSSCGDTELLGQATLPV [K4P]	2.66
LTLMVLRSSSCGDTELLGQATLPV [K4M]	1.06
LTLGVLRSSSCGDTELLGQATLPV [K4G]	2.46
LTCKVLRSSSCGDTELLGQATLPV [L3C]	1.68
LTDKVLRSSSCGDTELLGQATLPV [L3D]	3.35
LTMKVLRSSSCGDTELLGQATLPV [L3M]	1.46
LTWKVLRSSSCGDTELLGQATLPV [L3W]	2.45
LTYKVLRSSSCGDTELLGQATLPV [L3Y]	1.59
LTLKVLRSSSCGDTELLGQATEPV [L22E]	1.74
LTLKVLRSSSCGDTELLGQATSPV [L22S]	1.61
LTLKVLRSSSCGDTELLGQATKPV [L22K]	1.97
LTLKVLRSSSCGDTELLGQATCPV [L22C]	2.52
LTLKVLRSSSCGDTELLGQATWPV [L22W]	2.21
LTLKVLRSSSCGDTELLGQATTPV [L22T]	1.75
LTLKVLRSSSCGDTPLLGQATLPV [E15P]	2.61
LTLKVLRSSSCGDTSLLGQATLPV [E15S]	3.58
LTLKVLRSSSCGDTYLLGQATLPV [E15Y]	2.19

Variant	protein stability index
LTLKVLRSSSCGDTTLLGQATLPV [E15T]	2.83
LTLKVLRSSSCGDTILLGQATLPV [E15I]	3.24
LTLKVLRSSSCGDTALLGQATLPV [E15A]	3.85
LTLKVLRSSSCGDTNLLGQATLPV [E15N]	3.3
LTLKVLRSSSCGDTEFLGQATLPV [L16F]	2.34
LTLKVLRSSSCGDTEVLGQATLPV [L16V]	4.08
LTLKVLRSSSCGDTEKLGQATLPV [L16K]	1.9
LTLKVLRSSSCGDTEHLGQATLPV [L16H]	1.43
LTLKVLRSSSCGDTEQLGQATLPV [L16Q]	1.78
LTLKVLRSSSCGDTEILGQATLPV [L16I]	2.19
LTLKVLRSSSCGDTEALGQATLPV [L16A]	1.79
LTLKVLRSSSCGDTEGLGQATLPV [L16G]	1.97
LTLKVLRSSSCGDTESLGQATLPV [L16S]	1.72
LTLKVLRSSSCGDTELLGSATLPV [Q19S]	2.79
LTLKVLRSSSCGDTELLGDATLPV [Q19D]	1.61
LTLKVLRSSSCGDTELLGFATLPV [Q19F]	3.05
LTLKVLRSSSCGDTELLGPATLPV [Q19P]	2.06
LTLKVLRSSSCGDTELLGCATLPV [Q19C]	4.52
LTLKVLRSSSCGDTELLGNATLPV [Q19N]	3.21
LTLKVLRSSSCGDTELLGHATLPV [Q19H]	2.94
LTLKVLRSSSCGDTELLGEATLPV [Q19E]	2.86
LTLKVLRSSSCGDTELLGYATLPV [Q19Y]	3.56
LTLKVLRSSSCGDTELLGKATLPV [Q19K]	2.78
LTLKVLRSSSCGDTELLGVATLPV [Q19V]	1.43

Variant	protein stability index
LTLKVLRSSSCGDTELLGWATLPV [Q19W]	3.5
LTLKVLRSSSCGDTELLGMATLPV [Q19M]	3.83
LKLKVLRSSSCGDTELLGQATLPV [T2K]	2.17
LRLKVLRSSSCGDTELLGQATLPV [T2R]	1.64
LQLKVLRSSSCGDTELLGQATLPV [T2Q]	2.93
LALKVLRSSSCGDTELLGQATLPV [T2A]	1.66
LELKVLRSSSCGDTELLGQATLPV [T2E]	1.92
LYLKVLRSSSCGDTELLGQATLPV [T2Y]	2.94
LCLKVLRSSSCGDTELLGQATLPV [T2C]	2.32
LDLKVLRSSSCGDTELLGQATLPV [T2D]	1.95
LILKVLRSSSCGDTELLGQATLPV [T2I]	2.9
LTLKVLRSSSRGDTELLGQATLPV [C11R]	1.9
LTLKVLRSSSYGDTELLGQATLPV [C11Y]	3.16
LTLKVLRSSSGGDTELLGQATLPV [C11G]	2.58
LTLKVLRSSSDGDTELLGQATLPV [C11D]	1.8
LTLKVLRSSSQGDTELLGQATLPV [C11Q]	1.43
LTLKVLRSSSMGDTELLGQATLPV [C11M]	2.48
LTLKVLRSSSPGDTELLGQATLPV [C11P]	1.34
LTLKVLRSSSIGDTELLGQATLPV [C11I]	4.68
LTLKVLRSSSAGDTELLGQATLPV [C11A]	1.55
